For experiment [1], the target named is GABAA receptor alpha-1 subunit (GABRA1) (human) (UniProt P14867). Briefly: cell-based or functional assay.
Experiment [2] concerns the target GABAA receptor beta-2 subunit (GABRB2) (human) (UniProt P47870). Briefly: cell-based or functional assay.

Chain of GABAA receptor beta-2 subunit (GABRB2) (human) (P47870 26-512): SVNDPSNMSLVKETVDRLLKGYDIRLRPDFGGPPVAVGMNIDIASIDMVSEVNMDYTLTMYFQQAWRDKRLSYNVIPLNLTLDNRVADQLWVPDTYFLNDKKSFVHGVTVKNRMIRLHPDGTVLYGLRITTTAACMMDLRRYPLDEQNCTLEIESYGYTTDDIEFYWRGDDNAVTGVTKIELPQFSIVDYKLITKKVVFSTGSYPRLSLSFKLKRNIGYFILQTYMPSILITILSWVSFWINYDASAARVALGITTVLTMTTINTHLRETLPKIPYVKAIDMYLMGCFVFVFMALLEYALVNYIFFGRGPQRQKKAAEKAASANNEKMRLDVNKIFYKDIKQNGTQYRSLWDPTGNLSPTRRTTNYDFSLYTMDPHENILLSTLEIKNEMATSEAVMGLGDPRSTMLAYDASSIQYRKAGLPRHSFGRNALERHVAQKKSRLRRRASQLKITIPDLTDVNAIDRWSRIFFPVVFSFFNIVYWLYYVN
Chain of GABAA receptor alpha-1 subunit (GABRA1) (human) (P14867 28-456): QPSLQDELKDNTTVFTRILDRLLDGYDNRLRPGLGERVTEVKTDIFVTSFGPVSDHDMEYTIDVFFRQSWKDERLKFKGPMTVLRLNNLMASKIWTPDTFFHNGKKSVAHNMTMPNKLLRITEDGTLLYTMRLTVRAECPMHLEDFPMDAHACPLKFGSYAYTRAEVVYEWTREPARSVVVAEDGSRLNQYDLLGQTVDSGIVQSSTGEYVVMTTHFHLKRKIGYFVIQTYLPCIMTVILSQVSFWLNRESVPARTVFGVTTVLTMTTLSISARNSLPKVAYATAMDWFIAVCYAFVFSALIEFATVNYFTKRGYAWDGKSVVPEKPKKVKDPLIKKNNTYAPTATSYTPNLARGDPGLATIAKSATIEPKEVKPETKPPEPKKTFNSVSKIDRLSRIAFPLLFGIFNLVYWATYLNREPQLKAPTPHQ

On to “wild-type GABAA receptor gamma-2 subunit (GABRG2) (from UniProt P18507 40-475)”, for which the partial inhibition of the GABA current by Zn2+ (10 µM), Xenopus oocytes, two-electrode voltage clamp in experiment [1] and in experiment [2] was 37% each time.

As to “GABAA receptor gamma-2 subunit R43Q mutant, GABRG2(R43Q) (from UniProt P18507 40-475)”, the partial inhibition of the GABA current by Zn2+ (10 µM), Xenopus oocytes, two-electrode voltage clamp in experiment [1] and in experiment [2] was 40% throughout.

These data come from patent US20040038236A1.
